Legend:
RsmA [1] = biological target: T1, RsmA (Pseudomonas aeruginosa M18, UniProt O69078 1-61); assay: EMSA; RsmA 0-400 nM; EMSA: 200 mM KCl, 100 mM HEPES pH 7.3, 10 mM MgCl2, 2 ug tRNA, 5% glycerol, 10 mM DTT, room temp 30 min, 1 nM RNA; SPR: 200 mM NaCl, 20 mM Tris-HCl pH 8.0, 1 mM EDTA, 1 mM DTT, 25 C; details: protein: recombinant; tags: C-terminal His tag; chain copies: 2; label: 3' biotin
RsmA [2] = biological target: T1, RsmA; assay: SPR; biotin-RNA on SA chip; 200 mM NaCl, 20 mM Tris-HCl pH 8.0, 1 mM EDTA, 1 mM DTT; 25 C; EMSA: 200 mM KCl, 100 mM HEPES pH 7.3, 10 mM MgCl2, 2 ug tRNA, 5% glycerol, 10 mM DTT, room temp 30 min, 1 nM RNA; SPR: 200 mM NaCl, 20 mM Tris-HCl pH 8.0, 1 mM EDTA, 1 mM DTT, 25 C; details: protein: recombinant; tags: C-terminal His tag; chain copies: 2; label: 3' biotin

T1 sequence (O69078 whole entry): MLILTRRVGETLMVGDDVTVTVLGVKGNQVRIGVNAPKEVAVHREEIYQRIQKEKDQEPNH

Binder	binding result (RsmA [1])	Kd (RsmA [2]) [nM]
GGCAAUUCGGCAUUAGUUGAAACUUUGGAGACGCUCCGAA (ssRNA) [phz2-S1]	no binding	–
GGGCAACUUUUGCCCGGAAAAAGCUUCACGGCAAUUUCUC (ssRNA) [phz2-S2]	no binding	–
UCUUCUUUCCGGUAUGGAUGCCAGUCGAUUC (ssRNA) [phz2-S3]	–	54.5
UCUUCUUUCCGGUAUUUCUGCCAGUCGAUUC (ssRNA) [phz2-S3M]	no binding	–

Reference: publication PMC3933668, “The phzA2-G2 Transcript Exhibits Direct RsmA-Mediated Activation in Pseudomonas aeruginosa M18”
